Assay results reported in US20200247855A1, “THERAPY AND DIAGNOSTICS” (OXFORD UNIVERSITY INNOVATION LIMITED, priority 2017, published 2020).
Substitutions are numbered along the chain they refer to. Numbers in names are those of the source. Entries after “also recorded” stand apart in the source; their conditions may differ.

Tests used:
chemokines = details: list of chemokines bound, from the literature [18,20-22]; cited from earlier work
CCL4L1_HUMAN = target: T1, CCL4L1_HUMAN (Homo sapiens, UniProt Q8NHW4); assay: Biolayer interferometry (BLI) binding
T1 sequence (Q8NHW4 24-92): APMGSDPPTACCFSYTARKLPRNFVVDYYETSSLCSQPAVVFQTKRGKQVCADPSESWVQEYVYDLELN
Procedure: (§1) Table 1. Tick CKBPs described in PCT/GB2017/050563 and [17]. Tick peptide sequences isolated in yeast surface display fluorescent-activated cell sorting (FACS) screens using a labelled chemokine. Identity with Evasin-1, 4 or 3 was calculated using BLAST. Abbreviations: IXORI—Ixodes ricinus, RHISA—Rhipicephalus sanguineus, AMBMA—Amblyomma maculatum, AMBPA—Amblyomma parvum, AMBTR—Amblyomma triste, AMBAM—Amblyomma americanum, AMBCA—Amblyomma cajennense, RHIPU—Rhipicephalus pulchellus. Table 2A-C. Binding characteristics of tick CKBPs previously disclosed (PCT/GB2017/050563 and [17]). All members of the human chemokine family[164] are listed in column 1. Binding to human chemokines was determined for 14 tick CKBPs using biolayer interferometry (BLI) with calculated Kd shown as Molar (Moles/Litre). Binding data for 17 other novel tick CKBPs was assayed using yeast surface display[17,166],with positive binding results shown as “YES”. For biolayer interferometry, His-tagged purified tick CKBP was bound to a Ni-NINTA sensor on an OctetRed® 384 system, and then binding to each chemokine listed (with the exception of CCL25, CCL26, CXCL16, CXCL17, CXCL4L1, XCL2) was assayed in a cross-binding screen at a chemokine concentration of 300 nM as described. For those chemokines showing binding to a tick CKBP in the cross-binding screen, binding assays were repeated using different doses of chemokine. Association, equilibrium and dissociation data were analysed using Octet software to create corresponding fitted curves, and used to calculate Kd. For yeast surface display, (YSD) background fluorescence was controlled for by using either an empty vector or by omitting the chemokine (i.e. using streptavidin-Alexa647 alone). An arbitrary threshold of >3 fold over background mean fluorescence intensity was chosen to describe confirmed re-tests. Where binding was detected data are indicated as “YES”. […] For yeast surface display data, empty cells represent chemokines that were not tested. Binding data published in relation to previously described tick CKBPs (Evasins-1, 4 and 3) is also shown for comparison in each of FIGS. 2A-C, with the relevant data obtained from publications: [20-22,32]. Table 3: Neutralisation of human chemokines by tick CKBPs previously disclosed (PCT/GB2017/050563 and [17]). Neutralising activity was determined using a quantitative THP1 cell migration assay in a 96-well Boyden chamber with chemokine in the bottom chamber as described. Cells migrating through to the bottom chamber at 4 hours were counted using flow cytometry in a 96 well plate format. IC50 for neutralisation was determined at the chemokine EC80 dose as determined using a range of tick CKBP concentrations. Data was analysed using GraphPad Prism to determine IC50, which is shown as Molar (Moles/Litre). Empty cells represent experiments not done. Table 4—Other previously described tick CKBPs. Tick CKBPs that were also described in PCT/GB2017/050563 and Singh et al. are indicated in “Notes”. Table 5.—Novel tick CKBPs of the invention. Table 6. […] The peptide sequence prefix indicates the identity, and suffix indicate the tick species as follows: AMBCA, Amblyomma cajennense and IXORI, Ixodes ricinus. […] Certain tick peptides e.g. P1074_IXORI were recovered from screens performed with more than one chemokine. Individual yeast clones recovered from the library were re-tested using a FACS (fluorescence activated cell sorting), experiment. The binding of the peptide to the chemokine was assayed by measuring the percent (%), of yeast cells expressing the given peptide that exceeded a background threshold set by measuring the fluorescence of the yeast library pool treated with streptavidin-[…] alone. When more than one independent yeast clone was isolated for a given peptide-chemokine combination, the mean percent shift was calculated and reported in column 3. […]

CCL2_HUMAN = CCL2_HUMAN (Homo sapiens, UniProt P13500); assay: Biolayer interferometry (BLI) binding
Chain of CCL2_HUMAN (P13500 24-99): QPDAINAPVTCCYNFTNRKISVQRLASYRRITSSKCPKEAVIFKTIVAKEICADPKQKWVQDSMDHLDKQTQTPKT
Procedure: as §1

CCL11_HUMAN = CCL11_HUMAN (Homo sapiens, UniProt P51671); assay: Biolayer interferometry (BLI) binding
Chain of CCL11_HUMAN (P51671 24-97): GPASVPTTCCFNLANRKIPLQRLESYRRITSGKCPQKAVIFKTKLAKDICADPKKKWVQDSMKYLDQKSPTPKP
Procedure: as §1

CCL7_HUMAN = CCL7_HUMAN (Homo sapiens, UniProt P80098); assay: Biolayer interferometry (BLI) binding
Chain of CCL7_HUMAN (P80098 24-99): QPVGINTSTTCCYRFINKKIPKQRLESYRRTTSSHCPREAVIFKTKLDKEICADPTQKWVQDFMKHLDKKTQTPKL
Procedure: as §1

CCL4_HUMAN = target: T2, CCL4_HUMAN (Homo sapiens, UniProt P13236); assay: Biolayer interferometry (BLI) binding
T2 sequence (P13236 24-92): T1 sequence (Q8NHW4 24-92) with G47S
Procedure: as §1

CCL13_HUMAN = CCL13_HUMAN (Homo sapiens, UniProt Q99616); assay: Biolayer interferometry (BLI) binding
Chain of CCL13_HUMAN (Q99616 17-98): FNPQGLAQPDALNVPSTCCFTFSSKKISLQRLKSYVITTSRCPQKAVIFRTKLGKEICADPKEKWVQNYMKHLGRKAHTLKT
Procedure: as §1

CCL8_HUMAN = target: T3, CCL8_HUMAN (Homo sapiens, UniProt P80075); assay: Biolayer interferometry (BLI) binding; details: for Kd: read-out: Kd, CCL8_HUMAN; for CCL8 binding (bound or not): 300 nM or 600 nM CCL8
T3 sequence (P80075 24-99): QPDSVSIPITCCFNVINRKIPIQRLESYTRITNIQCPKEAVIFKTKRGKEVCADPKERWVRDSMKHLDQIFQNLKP
Procedure: as §1

CCL14_HUMAN = target: T4, CCL14_HUMAN (Homo sapiens, UniProt Q16627); assay: Biolayer interferometry (BLI) binding
T4 sequence (Q16627 20-93): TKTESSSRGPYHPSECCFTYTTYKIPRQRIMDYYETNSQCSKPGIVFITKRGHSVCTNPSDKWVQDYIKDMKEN
Procedure: as §1

CCL3_HUMAN = target: T5, CCL3_HUMAN (Homo sapiens, UniProt P10147); assay: Biolayer interferometry (BLI) binding
T5 sequence (P10147 24-92): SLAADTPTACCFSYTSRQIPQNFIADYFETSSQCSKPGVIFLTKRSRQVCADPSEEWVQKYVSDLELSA
Procedure: as §1

CCL3L1_HUMAN = CCL3L1_HUMAN (Homo sapiens, UniProt P16619); assay: Biolayer interferometry (BLI) binding
Chain of CCL3L1_HUMAN (P16619 24-93): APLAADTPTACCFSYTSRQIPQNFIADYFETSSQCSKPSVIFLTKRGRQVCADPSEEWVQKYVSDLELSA
Procedure: as §1

B1: AAM-01: previously described tick CKBP, Amblyomma americanum (protein, listed as Amblyomma americanum)
chain: ESEGSVSTETEVISYEDDCQDDNSTCFIQTLNTTGEPRPVGCILECENSTQRLPNGTECLGLPGLAAVKMQRNVSYTCSVGLCNGEGVCDRTGLWIGCWTNTPPPNSTNVTTKPPTTTTASPGTG
Question: Which “Previously described chemokine binding” value (chemokines) does the source give for B1 here?
Answer: The value was “CCL11, CCL24,; also recorded: CCL26, CCL2,; also recorded: CCL8, CCL7”.

B2: IHO-01: previously described tick CKBP, Ixodes holocyclus (protein, listed as Ixodes holocyclus)
chain: AFVSSSTEVEIGSTSEHNSNETDEYGYDYNADGLGCPVVGIGGLDNKTWHPNCTNECPNSTKLFLLENGTP
Question: For B2, which “Previously described chemokine binding” value (chemokines) is on record?
Answer: Its value is “CCL11, CCL24, and CCL26, CCL2, and CCL8”.

B3: P1183_AMBTR: tick CKBP, Amblyomma triste (protein)
chain: EAPKDDFEYDGGCPFVVLDNGTHVKPAGCSHLCNGAPETLDNIECYNVTEEVAKRMTPGIPYACWLGWCSKGECKRDNRTEVCYRGSEEE
modifications: Amblyomma triste
Question: What does the source list for B3?
Answer: Kd (CCL4L1_HUMAN): 48 nM; Kd (CCL2_HUMAN): 12 nM; Kd (CCL11_HUMAN): 8.5 nM; Kd (CCL7_HUMAN): 5.4 nM; Kd (CCL4_HUMAN): 78 nM; Kd (CCL13_HUMAN): 5.7 nM; Kd (CCL8_HUMAN): 1100 nM

B4: Evasin-1 peptide encoded by EZ406190.1: Evasin-1 peptide variant K92E encoded by nucleotide sequence EZ406190.1 (protein)
chain: EDDEDYGDLGGCPFLVAENKTGYPTIVACKQDCNGTTETAPNGTRCFSIGDEGLRRMTANLPYDCPLGQCSNGDCIPKETYEVCYRRNWRDEKN
Question: For B4, which “CCL8 binding (bound or not)” value (CCL8_HUMAN) is on record?
Answer: The value was “does not bind CCL8”.

B5: EVA1(P67222-32): hybrid protein: P672 (E22-F32) region swapped into the corresponding segment of EVA1_RHISA (protein)
chain: EDDEDYEDFFKPVTCYFLVAENKTGYPTIVACKQDCNGTTETAPNGTRCFSIGDEGLRRMTANLPYDCPLGQCSNGDCIPKETYEVCYRRNWRDKKN
modifications: EVA1 containing P672 E22-E32
notes: hybrid protein: P672 (E22-F32) region swapped into the corresponding segment of EVA1_RHISA
Question: Which “CCL8 binding (bound or not)” value (CCL8_HUMAN) does the source give for B5 here?
Answer: Its value is “bound CCL8”.

B6: IRI-01: previously described tick CKBP, Ixodes ricinus (protein, listed as Ixodes ricinus)
chain: GPAPSAKENEKAPLCLPQESLINNRDPNGCNYQLLPYFTEDGMGGGFLAIDCSKSCPEGTHETVVDGNS
Question: With B6 as the molecule, how does the “Previously described chemokine binding” value (chemokines) read?
Answer: The value was “CCL11, CCL24,; also recorded: CCL26, CCL2,; also recorded: CCL8, CCL7”.

B7: SEQ ID NO: 83: substituted hybrid with greater extent of P672_RHIPU sequence in Evasin-1 (protein)
chain: VCEVSEQEGVGEDNATEDEDYEDFFKPVTCYFANSTVGPLRPPNCTVVCTNNTAWWNDTKSDGGHCFSIGDEGLRRMTANLPYDCPLGQCSNGDCIPKETYEVCYRRNWRDEKN
modifications: tick CKBP sequence
Question: With B7 as the molecule, how does the “CCL8 binding (bound or not)” value (CCL8_HUMAN) read?
Answer: Its value is “having a CCL8-binding function”.

B8: AMA-01: previously described tick CKBP, Amblyomma maculatum (protein, listed as Amblyomma maculatum)
chain: ECEESDTSESTECSTEDYSNRIRDNETCFIGALNTTGHPVPVGCTLDCGNSTRYLPNGTECIDLTQQASDVMQSDVPYYCPIGLCANGICKRSGLELNCWHDMPPPVSTDTAIENPTTSISSSAKL
Question: Which “Previously described chemokine binding” value (chemokines) does the source give for B8 here?
Answer: The value was “CCL11, CCL24,; also recorded: CCL26, CCL2,; also recorded: CCL8, CCL7”.

B9: P983_AMBPA: tick CKBP; named P983_AMBCA in Table 1 (protein)
chain: EDTGTEDDFDYGNTGCPFPVLGNYKSNMTKPVGCKNKCGSGYEVLNDTTPCYVIDQKVFNNMVPLRQYSKCPLGFCENGECKPNDQAEDCYKGREEQK
modifications: Amblyomma cajennense
Question: With B9 as the molecule, how does the Kd (CCL14_HUMAN) read?
Answer: Its Kd is 81 nM.

Question: What about the Kd (CCL2_HUMAN) of the same molecule?
Answer: Its Kd is 14 nM.

Question: And the Kd (CCL11_HUMAN)?
Answer: The Kd was 21 nM.

Question: What about the Kd (CCL7_HUMAN) of the same molecule?
Answer: The Kd was 32 nM.

Question: What about the Kd (CCL4_HUMAN) of the same molecule?
Answer: Its Kd is 8 nM.

Question: What about the Kd (CCL13_HUMAN) of the same molecule?
Answer: The Kd was 17 nM.

Question: And the Kd (CCL3_HUMAN)?
Answer: The Kd was 3.5 nM.

Question: What about the Kd (CCL3L1_HUMAN) of the same molecule?
Answer: The Kd was 2.1 nM.

Question: And the Kd (CCL8_HUMAN)?
Answer: The Kd was 7 nM.

B10: SEQ ID NO: 82: substituted hybrid with greater extent of P672_RHIPU sequence in Evasin-1 (protein)
chain: VCEVSEQEGVGEDNATEDEDYEDFFKPVTCYFANSTVGPLRPPNCTVVCTNNTAWWNDTKSDGGHCYSEYRPEKRTHSREIYNCTIGVCGNGDCIPKETYEVCYRRNWRDEKN
modifications: tick CKBP sequence
Question: Which “CCL8 binding (bound or not)” value (CCL8_HUMAN) does the source give for B10 here?
Answer: The value was “having a CCL8-binding function”.

B11: ACA-02: previously described tick CKBP, Amblyomma cajennense (protein)
chain: GIEGSGNLATSHEMDDCLDDNSTCVIQTLNTTGEPRPVGCVLKCKNSTQHLANGTECLGIPELAGVRMQYNVSYTCAVGLCNAGVCERTGLWIGCWQNEPPPNSTDVTTTAPTTTTASTSSV
modifications: Amblyomma cajennense
Question: With B11 as the molecule, how does the “Previously described chemokine binding” value (chemokines) read?
Answer: Its value is “CCL11, CCL24,; also recorded: CCL26”.

B12: RPU-02: previously described tick CKBP, Rhipicephalus pulchellus (protein, listed as Rhipicephalus pulchellus)
chain: CEVQNTTLAEEDYDTGCGYNIVITKNKTLVVNCTMDCQPKMLMNESEPCLFNSSVPYDHMQPHHNYTCMEGICKNGTCVSPSNNITCWLPPPPVRYYPNETMVTSTIEPEA
Question: Which “Previously described chemokine binding” value (chemokines) does the source give for B12 here?
Answer: Its value is “CCL11, CCL24,; also recorded: CCL26, CCL2,; also recorded: CCL8, CCL7”.

B13: ATR-02: previously described tick CKBP, Amblyomma triste (protein)
chain: GNEVSDPPLTDEDCEYYDPSEDNITCSIRSLNTTGRPIPVGCLATCENSTRRLHNGTECLGISDQVANRMQGNVTYTCPVGLCYRGVCQRNGLGIDCWHNTPPPNSTNVTTNASTTPLPTSSRDL
modifications: Amblyomma triste
Question: With B13 as the molecule, how does the “Previously described chemokine binding” value (chemokines) read?
Answer: The value was “CCL11, CCL24,; also recorded: CCL26, CCL2,; also recorded: CCL8, CCL7”.
